{
  "source": "patent US20080193921",
  "about": "“Methods to identify agents that bind the flap-tip helix of RNA polymerase” (Wisconsin Alumni Research Foundation, published 2008)",
  "molecules": {"B1": {"name": "his pause RNA, tetraloop hairpin (ssRNA)", "RNA": "CCUGCUUCGGCAGGCGAUGUGUGCUG", "modifications": "5-iodoU in hairpin loop"}, "B2": {"name": "his pause RNA hairpin, wild-type (ssRNA)", "RNA": "CCUGACUAGUCUUUCAGG", "modifications": "5-iodoU or 4-thioU in hairpin loop"}},
  "key": {"[1]": {"molecular_target": "σ^70 lacking region 1 (UniProt P00579)", "assay": "trypsin protection of the β flap-tip by σ70 lacking region 1; wild-type RNAP without σ: 9.2 ± 0.1"}, "[2]": {"molecular_target": "σ^70 lacking region 4 (UniProt P00579)", "assay": "trypsin protection of the β flap-tip by σ70 lacking region 4; wild-type RNAP without σ: 9.2 ± 0.1"}, "[3]": {"molecular_target": "σ^70 lacking region 1 and region 4 (UniProt P00579)", "assay": "trypsin protection of the β flap-tip by σ70 lacking regions 1 and 4; wild-type RNAP without σ: 9.2 ± 0.1"}, "[4]": {"molecular_target": "RNA polymerase beta F906A beta F906A (Escherichia coli) (UniProt P0A7Z4+P0A8V2+P0A8T7+P0A800)", "details": "-sigma70; SD 0.14"}, "[5]": {"molecular_target": "RNA polymerase beta I905N beta I905N (Escherichia coli) (UniProt P0A7Z4+P0A8V2+P0A8T7+P0A800)", "details": "-sigma70; SD 0.04"}, "[6]": {"molecular_target": "RNA polymerase beta L901Q beta L901Q (Escherichia coli) (UniProt P0A7Z4+P0A8V2+P0A8T7+P0A800)", "details": "-sigma70; SD 0.05"}, "[7]": {"molecular_target": "RNA polymerase beta L901R beta L901R (Escherichia coli) (UniProt P0A7Z4+P0A8V2+P0A8T7+P0A800)", "details": "-sigma70; SD 0.05"}, "[8]": {"molecular_target": "RNA polymerase beta L902P beta L902P (Escherichia coli) (UniProt P0A7Z4+P0A8V2+P0A8T7+P0A800)", "details": "-sigma70; SD 0.05"}, "[9]": {"molecular_target": "RNA polymerase beta delta(900-909) beta deletion 900-909 (Escherichia coli) (UniProt P0A7Z4+P0A8V2+P0A8T7+P0A800)", "details": "-sigma70; SD 0.02"}, "[10]": {"molecular_target": "RNA polymerase core, wild-type (alpha2 beta beta' omega) (Escherichia coli) (UniProt P0A7Z4+P0A8V2+P0A8T7+P0A800)", "details": "[3H]UMP incorporation, -sigma70; SD 0.05"}, "[11]": {"molecular_target": "RNA polymerase sigma70 holoenzyme, beta F906A beta F906A (Escherichia coli) (UniProt P0A7Z4+P0A8V2+P0A8T7+P0A800+P00579)", "details": "+sigma70; SD 0.15"}, "[12]": {"molecular_target": "RNA polymerase sigma70 holoenzyme, beta I905N beta I905N (Escherichia coli) (UniProt P0A7Z4+P0A8V2+P0A8T7+P0A800+P00579)", "details": "+sigma70; SD 0.02"}, "[13]": {"molecular_target": "RNA polymerase sigma70 holoenzyme, beta L901Q beta L901Q (Escherichia coli) (UniProt P0A7Z4+P0A8V2+P0A8T7+P0A800+P00579)", "details": "+sigma70; SD 0.07"}, "[14]": {"molecular_target": "RNA polymerase sigma70 holoenzyme, beta L901R beta L901R (Escherichia coli) (UniProt P0A7Z4+P0A8V2+P0A8T7+P0A800+P00579)", "details": "+sigma70; SD 0.07"}, "[15]": {"molecular_target": "RNA polymerase sigma70 holoenzyme, beta L902P beta L902P (Escherichia coli) (UniProt P0A7Z4+P0A8V2+P0A8T7+P0A800+P00579)", "details": "+sigma70; SD 0.09"}, "[16]": {"molecular_target": "RNA polymerase sigma70 holoenzyme, beta delta(900-909) beta deletion 900-909 (Escherichia coli) (UniProt P0A7Z4+P0A8V2+P0A8T7+P0A800+P00579)", "details": "+sigma70; SD 0.05"}, "[17]": {"molecular_target": "RNA polymerase sigma70 holoenzyme, wild-type (Escherichia coli) (UniProt P0A7Z4+P0A8V2+P0A8T7+P0A800+P00579)", "details": "+sigma70; SD 0.1"}, "[18]": {"molecular_target": "T1, RNA polymerase core, wild-type (alpha2 beta beta' omega) (Escherichia coli, UniProt P0A7Z4;P0A8V2;P0A8T7;P0A800 P0A7Z4:1-329,P0A8V2:1-1342,P0A8T7:1-1407,P0A800:2-91)", "assay": "5-iodoU UV crosslinking in paused TEC", "details": "tags: N-terminal His6 on beta; beta' C-terminal intein-CBD removed by DTT; chain copies: 2,1,1,1; label: 32P; hairpin"}, "[19]": {"molecular_target": "RNA polymerase beta F906A (Escherichia coli, UniProt P0A7Z4;P0A8V2;P0A8T7;P0A800 P0A7Z4:1-329,P0A8V2:1-1342,P0A8T7:1-1407,P0A800:2-91, beta F906A)", "assay": "4-thioU crosslink retained while 5-iodoU crosslink lost; hairpin-flap interaction not altered", "details": "tags: N-terminal His6 on beta, beta' intein-CBD removed by DTT, chain copies: 2,1,1,1, label: 32P"}, "[20]": {"molecular_target": "RNA polymerase beta K909C (Escherichia coli, UniProt P0A7Z4;P0A8V2;P0A8T7;P0A800 P0A7Z4:1-329,P0A8V2:1-1342,P0A8T7:1-1407,P0A800:2-91, beta K909C)", "assay": "UV crosslinking in paused TEC; crosslink maps between 903 and 909", "details": "tags: N-terminal His6 on beta; chain copies: 2,1,1,1; label: 32P; hairpin", "procedure": "(§1) First, paused TECs containing either wild-type or βK909C mutant RNAPs and a wild-type pause hairpin loop derivatized with 5-iodoU and [α-³²P]CMP were prepared (FIG. 1A). The 5-iodoU crosslink was mapped by cleaving the crosslinked β subunit either to completion with trypsin or partially with 2-nitro-5-thiobenzoic-acid (NTCB), and by separating the cleavage products on SDS polyacrylamide gels (8-16% gradient; FIG. 6A). Trypsin cleavage was performed prior to disruption of the TEC, which results in cleavage within β only at R903 and K909 (Boruhkov et al., 1991). […] NTCB cleaves at Cys residues, which are present at seven positions in wild-type β and eight in βK909C."}, "[21]": {"molecular_target": "T1, RNA polymerase core, wild-type (alpha2 …)", "assay": "UV crosslinking (5-iodoU) in paused TEC; mapped to beta 904-908", "details": "tags: N-terminal His6 on beta; beta' C-terminal intein-CBD removed by DTT; chain copies: 2,1,1,1; label: 32P; hairpin", "procedure": "as §1"}},
  "data": [
    {"molecule": "wild-type Escherichia coli RNA polymerase (core enzyme, α, β, β′ subunits)", "values": [
      {"measurement": "β cleavage rate + σ^70", "setting": "[1]", "value": 0.0062, "unit": "s⁻¹"},
      {"measurement": "β cleavage rate + σ^70", "setting": "[2]", "value": 0.011, "unit": "s⁻¹"},
      {"measurement": "β cleavage rate + σ^70", "setting": "[3]", "value": 0.011, "unit": "s⁻¹"}
    ]},
    {"molecule": "poly(dA dT)", "values": [
      {"measurement": "binding signal (relative to wild-type core)", "setting": "[4]", "value": 1},
      {"measurement": "binding signal (relative to wild-type core)", "setting": "[5]", "value": 1},
      {"measurement": "binding signal (relative to wild-type core)", "setting": "[6]", "value": 1.2},
      {"measurement": "binding signal (relative to wild-type core)", "setting": "[7]", "value": 1.2},
      {"measurement": "binding signal (relative to wild-type core)", "setting": "[8]", "value": 1.2},
      {"measurement": "binding signal (relative to wild-type core)", "setting": "[9]", "value": 0.95},
      {"measurement": "binding signal (relative to wild-type core)", "setting": "[10]", "value": 1},
      {"measurement": "binding signal (relative to wild-type core)", "setting": "[11]", "value": 2.1},
      {"measurement": "binding signal (relative to wild-type core)", "setting": "[12]", "value": 1.3},
      {"measurement": "binding signal (relative to wild-type core)", "setting": "[13]", "value": 1.4},
      {"measurement": "binding signal (relative to wild-type core)", "setting": "[14]", "value": 1.5},
      {"measurement": "binding signal (relative to wild-type core)", "setting": "[15]", "value": 1.5},
      {"measurement": "binding signal (relative to wild-type core)", "setting": "[16]", "value": 0.9},
      {"measurement": "binding signal (relative to wild-type core)", "setting": "[17]", "value": 2}
    ]},
    {"molecule": "B1", "values": [
      {"measurement": "binding result", "setting": "[18]", "value": "binds"}
    ]},
    {"molecule": "B2", "values": [
      {"measurement": "binding result", "setting": "[19]", "value": "binds"},
      {"measurement": "binding result", "setting": "[20]", "value": "binds"},
      {"measurement": "binding result", "setting": "[21]", "value": "binds"}
    ]}
  ]
}
